Results: article PMC7474069, “Cystathionine β-synthase is involved in cysteine biosynthesis and H2S generation in Toxoplasma gondii” (Scientific Reports, 2020)
“And” between values parts separate entries of the source, which are not always exact repeats. Equal entries are not always repeated.

Experiments:
TgCBS [1] = biological target: T1, TgCBS (Toxoplasma gondii, UniProt A0A125YSJ9); test: intrinsic fluorescence titration of apo-enzyme; type: binding
T1 construct: gene TGME49_259180; mainly dimer with some tetramer; no heme, PLP at Lys56
T1 sequence (A0A125YSJ9 1-514): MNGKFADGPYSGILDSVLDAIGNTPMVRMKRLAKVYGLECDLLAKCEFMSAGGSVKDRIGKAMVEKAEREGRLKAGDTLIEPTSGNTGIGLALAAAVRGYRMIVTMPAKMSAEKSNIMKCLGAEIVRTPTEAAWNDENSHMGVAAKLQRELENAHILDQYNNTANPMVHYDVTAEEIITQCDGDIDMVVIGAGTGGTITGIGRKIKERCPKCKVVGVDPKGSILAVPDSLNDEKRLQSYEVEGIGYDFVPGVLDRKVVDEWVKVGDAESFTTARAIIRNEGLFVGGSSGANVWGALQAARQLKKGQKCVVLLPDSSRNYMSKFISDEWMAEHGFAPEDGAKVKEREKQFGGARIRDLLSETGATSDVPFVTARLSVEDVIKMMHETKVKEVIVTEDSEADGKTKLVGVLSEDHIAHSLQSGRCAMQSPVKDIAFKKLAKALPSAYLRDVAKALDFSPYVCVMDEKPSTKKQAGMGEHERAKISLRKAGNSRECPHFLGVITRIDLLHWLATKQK

TgCBS [2] = biological target: T1, TgCBS; test: CD spectroscopy (external aldimine formation); type: binding; details: 25 mM; 20 mM sodium phosphate pH 8.5; 25 °C; substrate analog
TgCBS [3] = biological target: T1, TgCBS; test: CD spectroscopy (aminoacrylate formation); type: binding; details: 3 mM; 20 mM sodium phosphate pH 8.5; 25 °C
N[C@@H](CO)C(=O)O = test: purified protein; details: CBS coupled-assay conditions (MBP buffer pH 9; 37 °C)
[4] = tested on: N[C@@H](CCSC[C@H](N)C(=O)O)C(=O)O; test: purified protein; details: CBS coupled-assay conditions (MBP buffer pH 9; 37 °C)
TgCBS [5] = biological target: T1, TgCBS; test: lead acetate H2S assay, biphasic fit; type: biochemical; details: substrate inhibition in beta-elimination; L-Cys alone; 50 mM Hepes pH 7.4; 37 °C; PLP 20 µM
Source text: (§1) lead acetate H2S assay, biphasic fit on TgCBS

TgCBS [6] = biological target: T1, TgCBS; test: lead acetate H2S assay, substrate competition; type: biochemical
Source text: lead acetate H2S assay, substrate competition on TgCBS | The IC50 value, i.e. the concentration of L-Ser at which the H2S production

[7] = substrate: N[C@@H](CS)C(=O)O; test: lead acetate H2S assay, biphasic fit; type: biochemical, Toxoplasma gondii; details: beta-elimination of L-Cys alone, site 1, 50 mM Hepes pH 7.4, 37 °C, PLP 20 µM
Source text: as §1

purified protein [8] = substrate: N[C@@H](CO)C(=O)O; test: purified protein; type: biochemical, Toxoplasma gondii; details: co-substrate L-Hcys, MBP buffer pH 9, 37 °C, PLP 20 µM
purified protein [9] = substrate: CC(=O)OC[C@H](N)C(=O)O; test: purified protein; type: biochemical, Toxoplasma gondii; details: co-substrate L-Hcys, MBP buffer pH 9, 37 °C, PLP 20 µM
purified protein [10] = substrate: N[C@@H](CCS)C(=O)O; test: purified protein; type: biochemical, Toxoplasma gondii; details: co-substrate L-Ser, MBP buffer pH 9, 37 °C, PLP 20 µM
[11] = biological target: the molecule itself; test: SEC; Superdex 200 10/30 GL, TgCBS at 1 mg/mL, 20 mM sodium phosphate pH 8.5, 150 mM NaCl, 0.1 mM DTT; masses from a calibration curve of standard proteins

## Cc1ncc(COP(=O)(O)O)c(C=O)c1O [PLP]
TgCBS [1]
  Kd: 0.00013 ± 1e-05 mM

## C[C@H](N)C(=O)O [L-Ala]
TgCBS [2]
  CD spectroscopy (external aldimine formation): Addition of the analog L-alanine (L-Ala) to TgCBS resulted in a shift

## NC(CSCC(N)C(=O)O)C(=O)O (stereo not shown) [lanthionine]
TgCBS [3]
  CD spectroscopy (aminoacrylate formation): Binding of lanthionine to the enzyme

## recombinant CBL (Corynebacterium diphtheriae NCTC 13129)
N[C@@H](CO)C(=O)O
  Km: 7500 ± 1400 µM
  kcat: 1.2 ± 0.2 s⁻¹
[4]
  Km: 800 ± 100 µM
  kcat: 93 ± 2 s⁻¹

## N[C@@H](CS)C(=O)O [L-Cys]
TgCBS [5]
  TgCBS: 36 ± 4 mM

## N[C@@H](CO)C(=O)O [L-Ser]
TgCBS [6]
  IC50: 6.7 ± 1.3 mM

B1: TgCBS (Toxoplasma gondii ME49) (protein)
chain: T1 sequence (A0A125YSJ9 1-514)
notes: mainly dimer with some tetramer; no heme, PLP at Lys56
[7]
  Km: 4700 ± 900 µM
  kcat: 2.6 ± 0.3 s⁻¹
  kcat/Km: 600 ± 200 M⁻¹ s⁻¹
Purified protein [8]
  Km: 420 ± 40 µM
  kcat: 6.3 ± 0.4 s⁻¹
  kcat/Km: 15000 ± 2000 M⁻¹ s⁻¹
Purified protein [9]
  Km: 1300 ± 200 µM
  kcat: 5.5 ± 0.1 s⁻¹
  kcat/Km: 4200 ± 700 M⁻¹ s⁻¹
Purified protein [10]
  Km: 230 ± 30 µM
  kcat: 6.3 ± 0.4 s⁻¹
  kcat/Km: 27000 ± 5000 M⁻¹ s⁻¹

B2: Cystathionine β-synthase from Toxoplasma gondii (enzyme, Toxoplasma gondii (strain ME49), UniProt A0A125YSJ9 1-514, looked up)
chain: T1 sequence (A0A125YSJ9 1-514)
modifications: PLP bound to active site Lys56 (internal aldimine)
notes: Cystathionine β-synthase, Toxoplasma gondii strain ME49, gene TGME49_259180 (ToxoDB), complete cDNA as a synthetic gene; 514 amino acids (55.8 kDa); Cloned into pET21a (NdeI/BamHI); Mainly a dimer in solution, with some higher-order oligomers (e.g. tetramer); also called TgCBS; T. gondii CBS; source: E. coli Rosetta (DE3), purified (Ni-sepharose)
[11]
  stoichiometry N: 2 and 4
